Data from patent US20220396758.

Legend:
[1] = system: substrate protein S2-35 (two Smt3 domains separated by a 35 amino acid linker, charged tail, C-terminal ssrA tag)
[2] = system: substrate protein S2-148 (two Smt3 domains separated by an extended 148 amino acid linker, charged tail, C-terminal ssrA tag)
[3] = system: substrate protein S1 (single N-terminal Smt3 domain, 65-amino-acid charged flexible tail, C-terminal 11 amino acid ssrA tag)

covalently-linked trimer of an N-terminal truncated ClpX variant (ClpX-ΔN3)
second ramping state vi, ionic current [1]: This was followed by a ~8.5 pA state (FIG. 2C, vi) that closely resembled ramping state iii
translocation events that included ramping state iii, number of events [1]: Translocation events that included ramping state iii were observed 62 times for protein S2-35 (7.3 hours of experimentation) ... when ClpX and ATP were present. In the absence of ClpX/ATP, these ramping states were never observed for S2-35 (1.7 hours of experimentation)
translocation events that included ramping state iii, number of events [2]: Translocation events that included ramping state iii were observed ... 66 times for protein S2-148 (4.3 hours of experimentation), when ClpX and ATP were present. In the absence of ClpX/ATP, these ramping states were never observed ... for S2-148 (1.2 hours of experimentation)
ClpX-dependent ionic current ramp (ramping state iii), average current [3]: a progressive downward current ramp reaching an average of ~10 pA with a median duration of 4.3 seconds
ClpX-dependent ionic current ramp (ramping state iii), median duration [3]: a progressive downward current ramp reaching an average of ~10 pA with a median duration of 4.3 seconds
ClpX-dependent ionic current ramp (ramping state iii), number of events [3]: This current ramp was observed with protein S1 a total of 45 times over ~5.5 hours of experimentation when ClpX and ATP were present; in contrast, the ramp was never observed following state ii when ClpX and ATP were absent from the trans solution over ~2.3 hours of experimentation
